Read-outs that look alike come from different tables or passages of the source.
Legend:
Experiment in all cases: cell-based or functional assay
[1] = biological target: T1, CD19 on CD19 +ve cell lines (Daudi, Ramos, WSU-DLCL2) (human, UniProt P15391 20-556)
T1 sequence (looked up): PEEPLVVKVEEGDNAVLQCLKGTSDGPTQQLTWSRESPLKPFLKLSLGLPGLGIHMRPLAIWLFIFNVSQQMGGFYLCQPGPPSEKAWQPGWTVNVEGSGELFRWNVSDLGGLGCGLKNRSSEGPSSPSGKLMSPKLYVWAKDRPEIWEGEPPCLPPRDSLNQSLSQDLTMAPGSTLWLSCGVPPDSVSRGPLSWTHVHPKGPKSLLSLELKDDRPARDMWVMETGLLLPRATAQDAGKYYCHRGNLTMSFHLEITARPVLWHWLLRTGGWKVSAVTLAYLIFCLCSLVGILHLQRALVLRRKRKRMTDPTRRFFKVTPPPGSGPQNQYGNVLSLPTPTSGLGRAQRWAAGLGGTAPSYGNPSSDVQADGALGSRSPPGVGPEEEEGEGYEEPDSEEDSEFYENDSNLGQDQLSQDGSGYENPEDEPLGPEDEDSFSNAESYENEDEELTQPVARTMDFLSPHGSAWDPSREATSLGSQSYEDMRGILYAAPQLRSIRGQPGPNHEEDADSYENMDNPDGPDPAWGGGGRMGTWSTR

[2] = biological target: T1, CD19 on CD19 +ve cell lines (Daudi, …); remark: listed apart in the source
[3] = biological target: T1, CD19 on CD19 +ve cell lines (Daudi, …); remark: listed apart in the source

B1: RB4v1.2-A (anti-CD19 antibody RB4v1.2 conjugated to PBD drug linker A) (antibody, DAR 2.2, V domains shown)
VH: QVQLVQPGAEVVKPGASVKLSCKTSGYTFTSNWMHWVKQAPGQGLEWIGEIDPSDSYTNYNQNFQGKAKLTVDKSTSTAYMEVSSLRSDDTAVYYCARGSNPYYYAMDYWGQGTSVTVS
VL: EIVLTQSPAIMSASPGERVTMTCSASSGVNYMHWYQQKPGTSPRRWIYDTSKLASGVPARFSGSGSGTSYSLTISSMEPEDAATYYCHQRGSYTFGGGTKLEIK
modifications: PBD dimer drug linker A attached to cysteine thiols after TCEP reduction; positions not given; DAR 2.2 for the whole ADC
EC50 (µg/mL), in vitro cytotoxicity, Alamar Blue cell survival, Daudi cells [1]: 0.00112 µg/mL
EC50 (µg/mL), in vitro cytotoxicity, Alamar Blue cell survival, Ramos cells [1]: 0.00102 µg/mL
EC50 (µg/mL), in vitro cytotoxicity, Alamar Blue cell survival, WSU-DLCL2 cells [1]: 0.117 µg/mL

B2: RB4v1.2-D (anti-CD19 antibody RB4v1.2 conjugated to PBD drug linker D) (antibody, DAR 2.18, V domains shown)
VH: B1 VH
VL: B1 VL
modifications: PBD dimer drug linker D (iodoacetamide) attached to cysteine thiols after TCEP reduction; positions not given; DAR 2.18 for the whole ADC
EC50 (µg/mL), in vitro cytotoxicity, Alamar Blue cell survival, Daudi cells [2]: 0.00102 µg/mL
EC50 (µg/mL), in vitro cytotoxicity, Alamar Blue cell survival, Ramos cells [2]: 0.000798 µg/mL
EC50 (µg/mL), in vitro cytotoxicity, Alamar Blue cell survival, WSU-DLCL2 cells [2]: 0.0219 µg/mL

B3: RB4v1.2-E (anti-CD19 antibody RB4v1.2 conjugated to PBD drug linker E) (antibody, DAR 1.93, V domains shown)
VH: B1 VH
VL: B1 VL
modifications: PBD dimer drug linker E attached to cysteine thiols after TCEP reduction; positions not given; DAR 1.93 for the whole ADC
EC50 (µg/mL), in vitro cytotoxicity, Alamar Blue cell survival, Daudi cells [3]: 0.00122 µg/mL
EC50 (µg/mL), in vitro cytotoxicity, Alamar Blue cell survival, Ramos cells [3]: 0.00147 µg/mL
EC50 (µg/mL), in vitro cytotoxicity, Alamar Blue cell survival, WSU-DLCL2 cells [3]: 0.031 µg/mL

Source: US20150283262A1 (AstraZeneca / MedImmune, published 2015)
